According to patent CN115703835A (BOAOXIN BIOTECHNOLOGY NANJING CO LTD, dated 2023):

Key:
[1] = biological target: T1, 重组人CRR9蛋白 (human CRR9-TEV-Fc蛋白) (human, UniProt Q96KA5 32-284, biotin-labelled in the capture ELISA and the blocking ELISA (sites not given)); assay: capture ELISA: antibody captured on GAM(Fc), biotinylated human CRR9-TEV-Fc at 0.2 ug/ml, SA-HRP
T1 construct: range 32-284; Made in-house; The order of parts follows the printed name CRR9-TEV-Fc; also called 人CRR9-TEV-Fc; CRR9-生物素; not shown: TEV site; Fc
T1 sequence (looked up): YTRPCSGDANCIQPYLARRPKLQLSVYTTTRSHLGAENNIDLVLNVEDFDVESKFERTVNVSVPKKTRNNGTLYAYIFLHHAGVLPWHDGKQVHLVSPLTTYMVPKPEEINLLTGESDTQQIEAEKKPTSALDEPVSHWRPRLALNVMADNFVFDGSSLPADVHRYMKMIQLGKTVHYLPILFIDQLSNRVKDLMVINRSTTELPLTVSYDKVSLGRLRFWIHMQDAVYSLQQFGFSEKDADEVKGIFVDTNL

人CRR9 (表面表达人CRR9的A549细胞) = biological target: T2, 人CRR9 (表面表达人CRR9的A549细胞) (human, UniProt Q96KA5 1-538); assay: flow cytometry on A549 cells
T2 construct: whole, on cells; CRR9 as expressed by A549 cells; also called CLPTM1L; 顺铂耐药相关蛋白9
T2 sequence (looked up): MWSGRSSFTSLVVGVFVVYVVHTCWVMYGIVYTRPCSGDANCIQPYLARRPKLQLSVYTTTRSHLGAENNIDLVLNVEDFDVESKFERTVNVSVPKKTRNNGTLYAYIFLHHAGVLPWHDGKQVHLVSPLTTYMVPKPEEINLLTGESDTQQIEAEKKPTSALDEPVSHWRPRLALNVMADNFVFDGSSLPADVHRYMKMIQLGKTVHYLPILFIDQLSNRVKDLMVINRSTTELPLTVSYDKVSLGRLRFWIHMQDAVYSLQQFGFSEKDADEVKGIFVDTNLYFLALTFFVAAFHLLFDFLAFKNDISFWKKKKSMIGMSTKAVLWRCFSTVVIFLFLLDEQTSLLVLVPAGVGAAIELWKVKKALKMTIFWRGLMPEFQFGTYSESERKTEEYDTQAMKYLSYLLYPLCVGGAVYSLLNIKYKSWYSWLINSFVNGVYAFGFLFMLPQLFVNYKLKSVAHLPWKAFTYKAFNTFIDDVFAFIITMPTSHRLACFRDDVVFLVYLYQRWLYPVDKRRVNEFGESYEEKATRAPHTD

binding result [1]: binds
binding result (人CRR9 (表面表达人CRR9的A549细胞)): binds
B1: 小鼠抗人CRR9单克隆抗体 A1C3G3B2 (antibody, V domains shown)
VH: QIQLVQSGPELKKPGETVKISCKASGYTFTNYGMSWVRQAPGKGLKWMGWINTNTGEPTYAEEFKGRFAFSLETSASTAYLQINNLKNEDTATYFCSRDYYYGGRGYFDYWGQGTTLTVSS
VL: QIVLTQSPAIMSASPGEKVTMTCSATSIVSYMHWYQQKSGTSPKRWIYDTSKLASGVPARFSGSGSGTSYSLTISSMEAADAATYYCQQWSYNPLTFGSGTKLELK
notes: Mouse monoclonal antibody purified from a hybridoma; also called 抗CRR9单克隆抗体
